Broadly, the Km is the substrate concentration at which the rate is half of its maximum.

This passage reports Km results from patent publication US6828106B2, “Methods and compositions using coiled binding partners” (Cyclacel Limited, priority 1999, dated 2004).

In data set [1] the target is T1, TEV protease (Tobacco etch virus, UniProt P04517).
T1 construct: Proteolytic cleavage was initiated by the addition of TEV protease (20U, Gibco Life Technologies); histidine tag; purchased Gibco Life Technologies
As to the kind of experiment: TEV protease FP assay with homodimer-forming reporter peptide. It is filed as biochemical. Particulars: substrate: fluorescein/biotin-labeled reporter peptide homodimer; FIG. 10; read-out: Km of TEV protease by FP analysis. The procedure: (§1) TEV protease activity and inhibition of TEV protease activity was determined by using a peptide capable of forming a homodimer, wherein homodimer formation is decreased following TEV protease cleavage of the peptide, according to the following method.
For FP analysis the reporter peptide (sequence recited above) was labeled with fluorescein or with biotin. The labeled peptides were incubated at a total peptide concentration of 6 μM (6:1 ratio, biotin:F) in 50 mM Tris, pH 8, 0.5 mM EDTA, 0.1 mg/ml BSA and 1 mM DTT at 30° C. for 5 minutes in a total volume of 100 μl. Proteolytic cleavage was initiated by the addition of TEV protease (20U), and monitored during the reaction time course by measuring the polarization of fluorescein (excitation 485 nm, emission 520 nm) over time. Initial rates of change of fluorescein polarization were determined for the linear portion of the reaction.
(§2) The activity of the TEV protease inhibitor iodacetamide was determined by FRET or FP assays performed as described above in the absence of iodacetamide or in the presence of 0.05-100 mM iodacetamide added prior to the addition of TEV protease. The results of these experiments are presented in FIG. 9 (FRET assay) and FIG. 11 (FP assay).

Data set [2] has as its target T1, TEV protease. As to the kind of experiment: TEV protease FRET assay with homodimer-forming reporter peptide. It is filed as biochemical. Particulars: substrate: fluorescein/rhodamine-labeled reporter peptide homodimer; FIG. 8; read-out: Km of TEV protease by FRET analysis. The procedure: as §1
For FRET analysis the reporter peptide (KGR MRCLEDR VENLYSQ SYHLENE VARLRRL VGELAAK) (SEQ ID NO: 32) was labeled with fluorescein or rhodamine. The labeled peptides were incubated at a total peptide concentration of 6 μM (6:1 ratio, R:F) in 50 mM Tris pH 8, and 0.5 mM EDTA, and 1 mM DTT at 30° C. for 15 minutes in a total volume of 100 μl. Proteolytic cleavage was initiated by the addition of TEV protease (20U, Gibco Life Technologies), and monitored during the time course of the reaction by measuring the emission of fluorescein (excitation 485 nm, emission 520 nm) over time. Initial rates of change of fluorescein emission were determined for the linear portion of the reaction.
as §2

B1: TEV protease: Tobacco Etch Virus protease, Gibco Life Technologies (protein)
chain: GESLFKGPRDYNPISSTICHLTNESDGHTTSLYGIGFGPFIITNKHLFRRNNGTLLVQSLHGVFKVKNTTTLQQHLIDGRDMIIIRMPKDFPPFPQKLKFREPQREERICLVTTNFQTKSMSSMVSDTSCTFPSSDGIFWKHWIQTKDGQCGSPLVSTRDGFIVGIHSASNFTNTNNYFTSVPKNFMELLTNQEAQQWVSGWRLNADSVLWGGHKVFMSKPEEPFQPVKEATQLMNELVYSQ
As to B1, the Km in the data set with TEV protease [1] and with TEV protease [2] was 36 µM throughout.
